# In article PMC9976904, “eIF4A1-dependent mRNAs employ purine-rich 5’UTR sequences to activate localised eIF4A1-unwinding through eIF4A1-multimerisation to facilitate translation”:
# Target: eIF4A1 DQAD (human, UniProt P60842 1-406, E183Q)
# Assay: EMSA; silvestrol; affinity similar to wt; 20 mM HEPES/KOH pH 7.5, 100 mM KCl, 1 mM TCEP, 1% DMSO, 2 mM AMPPNP/MgCl2, 25 C, 60 min; EMSA gels 6-7% acrylamide-TB, 0.5x TB
# Conditions: protein: recombinant; tags: N-terminal 6xHis-SUMO, cleaved; label: FAM or 5' Dy780
# eIF4A1 DQAD, sequence (P60842 whole entry E183Q): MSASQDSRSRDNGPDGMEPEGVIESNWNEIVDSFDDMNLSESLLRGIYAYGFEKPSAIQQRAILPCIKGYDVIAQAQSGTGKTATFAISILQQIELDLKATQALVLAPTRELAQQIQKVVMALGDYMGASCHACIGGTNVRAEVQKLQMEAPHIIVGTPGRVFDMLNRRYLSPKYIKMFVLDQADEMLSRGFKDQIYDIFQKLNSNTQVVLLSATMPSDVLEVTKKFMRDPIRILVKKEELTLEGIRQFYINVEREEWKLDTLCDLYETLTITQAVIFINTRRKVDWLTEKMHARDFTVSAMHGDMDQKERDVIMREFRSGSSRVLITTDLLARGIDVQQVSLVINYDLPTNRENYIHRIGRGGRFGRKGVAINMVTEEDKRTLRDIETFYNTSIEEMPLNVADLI
binder,measurement,value
AGAGAGAGAGAGAGAGAGAG (ssRNA) [AG-RNA (20 nt)],binding result,binds
